Entries after “also recorded” stand apart in the source; their conditions may differ. Like-named read-outs stand apart in the source and are kept apart here.
Columns and labels:
HMG-CoA reductase = biological target: T1, HMG-CoA reductase (Homo sapiens, UniProt P04035); experiment: HMGCoA reductase activity assay, HepG2 cells treated with inhibitors, cell proteins used as enzyme source; format: cell-based
T1 construct: The cell proteins were used as enzyme source; endogenous in cells; host or cells: HepG2
T1 sequence (P04035 1-888): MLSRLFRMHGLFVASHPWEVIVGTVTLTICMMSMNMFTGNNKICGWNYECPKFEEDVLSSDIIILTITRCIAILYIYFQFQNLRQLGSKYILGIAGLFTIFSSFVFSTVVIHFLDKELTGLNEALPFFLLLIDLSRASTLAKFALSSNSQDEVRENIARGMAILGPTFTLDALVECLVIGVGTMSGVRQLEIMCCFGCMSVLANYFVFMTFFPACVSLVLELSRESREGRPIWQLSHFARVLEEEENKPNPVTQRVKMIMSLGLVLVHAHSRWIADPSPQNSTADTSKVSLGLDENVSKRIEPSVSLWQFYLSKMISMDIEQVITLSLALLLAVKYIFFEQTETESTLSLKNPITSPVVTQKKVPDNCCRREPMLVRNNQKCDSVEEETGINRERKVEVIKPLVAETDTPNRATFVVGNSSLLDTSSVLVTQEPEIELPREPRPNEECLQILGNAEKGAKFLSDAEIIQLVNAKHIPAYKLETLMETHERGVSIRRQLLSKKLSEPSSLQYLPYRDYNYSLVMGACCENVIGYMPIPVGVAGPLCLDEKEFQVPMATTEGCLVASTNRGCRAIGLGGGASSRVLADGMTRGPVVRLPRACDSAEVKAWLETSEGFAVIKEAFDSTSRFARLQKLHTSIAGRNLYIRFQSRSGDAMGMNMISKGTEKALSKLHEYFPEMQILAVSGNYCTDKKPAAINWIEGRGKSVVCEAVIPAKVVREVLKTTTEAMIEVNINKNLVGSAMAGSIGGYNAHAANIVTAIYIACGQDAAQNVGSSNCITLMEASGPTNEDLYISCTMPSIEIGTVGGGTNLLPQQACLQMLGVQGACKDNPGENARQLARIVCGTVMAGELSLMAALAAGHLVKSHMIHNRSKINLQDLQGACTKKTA
Protocol: The cell stocks of Human Hepatoma cell line-HepG2 were cultured in T-25 flask in Eagle's minimum essential medium (MEM), supplemented with 10% fetal bovine serum, and incubated in a humidified incubator (5% CO2) at 37° C.
After 4 hours incubation with the inhibitors, the media was discarded and cells were washed with 0.90%saline. The cells were scraped and collected into a 50 ml tube. The cells were centrifuged at 2400 rpm for 5 min at 4 C, and the resulting cell pellet was washed twice with 10 ml saline. The final cell pellet was resuspended in 30 μl lysis buffer and briefly sonicated. The suspension was centrifuged at 14,000 rpm for 15 min and the supernatant containing the enzyme, HMGCoA reductase, was used for the assay.
In biosynthesis of cholesterol, HMG-CoA reductase is the key enzyme to convert HMG-CoA to its product mevalonate. In the presence of HCl, the mevalonate is converted into mevalonolactone. […] It will retain HMG-CoA, which is negatively charge in the column but not mevalonolactone, which will be eluted out by ammonium formate.
The 50 μl assay buffer (100 mM potassium dihydrogen phosphate, 4 mM dithiothreitol, 20 mM glucose-6-phosphate, 20 unit glucose-6-phosphate dehydrogenase, 2.5 mM NADP^+, 30 μM [14C] HMG-CoA (0.01 μCi) and microsomal protein) was incubated at 37° C. for 1 hour. Reaction was terminated by addition of 25 μl of 2M HCl. After 30 min lactonization of mevalonate to mevalonolactone, 500 μl of 20 mM ammonium formate was added to each sample, spun for 5 min at 14,000 rpm.
Supernatant was applied to the column that is pre-packed with QAE-Sephadex (4 cm), equilibrated with ammonium formate. The first 5 ml fractions was eluted with 20 mM ammonium formate, followed by 5 ml of 0.05M HCl and 10 ml of 0.1M HCl. Radioactivity of the first 5 ml (1 ml fraction) was determined using Beckman LS6500 scintillation counter.

[1] = biological target: T2, HMG-CoA reductase from human hepatoma HepG2 cells (human) (UniProt P04035); experiment: cell-based or functional assay
T2 sequence: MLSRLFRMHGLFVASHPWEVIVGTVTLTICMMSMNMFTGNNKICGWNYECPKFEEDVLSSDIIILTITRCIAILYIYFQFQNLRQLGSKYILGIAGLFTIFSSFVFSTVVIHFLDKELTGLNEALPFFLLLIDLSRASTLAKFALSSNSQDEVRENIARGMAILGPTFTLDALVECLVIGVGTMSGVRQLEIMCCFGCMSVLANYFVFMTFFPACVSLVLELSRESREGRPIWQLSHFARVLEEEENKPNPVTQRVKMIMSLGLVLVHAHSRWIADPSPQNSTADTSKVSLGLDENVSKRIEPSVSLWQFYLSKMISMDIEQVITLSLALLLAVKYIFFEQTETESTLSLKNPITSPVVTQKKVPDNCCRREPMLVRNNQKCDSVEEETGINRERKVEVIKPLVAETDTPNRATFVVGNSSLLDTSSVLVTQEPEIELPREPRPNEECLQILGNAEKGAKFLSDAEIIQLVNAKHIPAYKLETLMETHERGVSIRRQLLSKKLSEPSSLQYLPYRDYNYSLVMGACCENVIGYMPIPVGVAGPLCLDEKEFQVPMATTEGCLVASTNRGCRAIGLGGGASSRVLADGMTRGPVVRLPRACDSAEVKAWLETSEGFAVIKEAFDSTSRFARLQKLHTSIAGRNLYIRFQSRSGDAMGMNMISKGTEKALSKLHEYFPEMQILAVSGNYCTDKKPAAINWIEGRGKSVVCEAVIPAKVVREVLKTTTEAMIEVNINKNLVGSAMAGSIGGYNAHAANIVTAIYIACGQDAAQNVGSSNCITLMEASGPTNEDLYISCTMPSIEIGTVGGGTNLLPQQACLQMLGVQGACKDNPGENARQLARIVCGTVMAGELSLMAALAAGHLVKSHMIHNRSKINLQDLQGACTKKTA

HMGCoA reductase = biological target: T3, HMGCoA reductase (Rattus norvegicus, UniProt P51639); experiment: HMGCoA reductase assay using the enzyme isolated from rat hepatocytes, inhibitors added to the enzyme assay; format: biochemical; conditions: enzyme from rat hepatocytes / rat liver microsomes
T3 construct: enzymes purified from the rat liver microsomes; from tissue; host or cells: rat hepatocytes / rat liver microsomes
T3 sequence (P51639 1-887): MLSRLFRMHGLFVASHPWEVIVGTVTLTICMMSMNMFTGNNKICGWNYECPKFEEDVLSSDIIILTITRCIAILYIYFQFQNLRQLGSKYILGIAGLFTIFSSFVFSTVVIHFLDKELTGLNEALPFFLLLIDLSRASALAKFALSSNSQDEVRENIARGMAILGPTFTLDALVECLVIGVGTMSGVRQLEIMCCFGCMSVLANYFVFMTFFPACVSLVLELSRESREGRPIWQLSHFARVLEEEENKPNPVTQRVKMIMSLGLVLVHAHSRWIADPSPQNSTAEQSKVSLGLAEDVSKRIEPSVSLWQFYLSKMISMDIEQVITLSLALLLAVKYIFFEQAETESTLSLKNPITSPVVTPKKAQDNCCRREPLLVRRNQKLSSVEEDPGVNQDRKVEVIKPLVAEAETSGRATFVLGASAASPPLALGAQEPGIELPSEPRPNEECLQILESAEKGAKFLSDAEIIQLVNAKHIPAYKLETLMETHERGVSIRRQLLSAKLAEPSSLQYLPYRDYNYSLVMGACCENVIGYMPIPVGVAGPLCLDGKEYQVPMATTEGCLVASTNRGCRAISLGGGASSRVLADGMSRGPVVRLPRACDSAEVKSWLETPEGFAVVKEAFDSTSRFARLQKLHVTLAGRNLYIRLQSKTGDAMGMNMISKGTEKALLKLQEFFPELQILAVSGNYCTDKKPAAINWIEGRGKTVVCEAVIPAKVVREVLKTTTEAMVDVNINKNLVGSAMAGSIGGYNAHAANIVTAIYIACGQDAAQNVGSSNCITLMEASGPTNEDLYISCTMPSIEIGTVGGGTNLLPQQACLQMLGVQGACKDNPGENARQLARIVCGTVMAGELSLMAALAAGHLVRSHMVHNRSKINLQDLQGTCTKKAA

HepG2 cell = experiment: Microarray analysis (global gene expression, HG_U133A chips) of treated HepG2 cells; format: cell-based, human
Protocol: The global gene expression (DNA microarray) analysis was carried out on human gene chips (HG_U133A). […] Genes showing two-fold signal to log ratio in expression from two independent experiments were scored as significant.

[2] = tested on: HepG2 cell protein profile; experiment: Protein profiling by SELDI-TOF (H4 and NP20 chips) of treated HepG2 cells; format: cell-based, human; conditions: Table 3A, hydrophobic chip H4
Source text: As for the protein profiling data, the profiles as shown in Table 3 were obtained by surface-enhanced laser […] ionization-time of flight mass spectro-photometry (SELDI-TOF) on treated and control samples using the H4 (hydrophobic) and the NP20 (hydrophilic) chips.

[3] = HepG2 cells treated with synthetic peptides or statins at 10 μM, vs untreated cells
[4] = HepG2, read-out: % of inhibition on HMG-CoA reductase activity, DMSO medium

DSLSPWNEGDTYYG (Buthus martensii Karsch) [Peptide 6]
% of inhibition on HMG-CoA reductase activity, Aqueous medium (HMG-CoA reductase; [3]): 4%

CC(C)n1c(/C=C/C(O)CC(O)CC(=O)O)c(-c2ccc(F)cc2)c2ccccc21 (centres unmarked) [Fluvastatin, reference compound]
inhibition at 10 µM (HMG-CoA reductase; HepG2 cells treated with synthetic peptides or statins at 10 μM, vs untreated cells, read-out: % of inhibition on HMG-CoA reductase activity, DMSO medium): 74%

QPAPFVKLCTCQGI (Buthus martensii Karsch) [Peptide 1]
% of inhibition on HMG-CoA reductase activity, Aqueous medium (HMG-CoA reductase; [3]): 20% | % of inhibition on HMG-CoA reductase activity, DMSO medium (HMG-CoA reductase; [3]): 20%

CCC(C)(C)C(=O)O[C@H]1C[C@@H](C)C=C2C=C[C@H](C)[C@H](CC[C@@H]3C[C@@H](O)CC(=O)O3)[C@H]21 [Simvastatin, reference compound]
inhibition at 10 µM (HMG-CoA reductase; HepG2, read-out: % of inhibition on HMG-CoA reductase activity, Aqueous medium): 35% | inhibition at 10 µM (HMG-CoA reductase; [4]): 65%

GDTYYG (Buthus martensii Karsch) [Peptide 9]
% of inhibition on HMG-CoA reductase activity, Aqueous medium (HMG-CoA reductase; [3]): 3%

QGIDYDNSFFFGALEKQCPK (Buthus martensii Karsch) [Peptide 4]
% of inhibition on HMG-CoA reductase activity, Aqueous medium (HMG-CoA reductase; [3]): 7%

KLHLASGGSCQQPAPFVKL (Buthus martensii Karsch) [Peptide 2]
% of inhibition on HMG-CoA reductase activity, Aqueous medium (HMG-CoA reductase; [3]): 30% | % of inhibition on HMG-CoA reductase activity, DMSO medium (HMG-CoA reductase; [3]): 7%

CC(C)c1c(C(=O)Nc2ccccc2)c(-c2ccccc2)c(-c2ccc(F)cc2)n1CC[C@@H](O)C[C@@H](O)CC(=O)O [Atorvastatin, reference compound]
inhibition at 10 µM (HMG-CoA reductase; [4]): 70%

PAPFVKLCTCQGIDYDNSFFFG (Buthus martensii Karsch) [Peptide 3]
% of inhibition on HMG-CoA reductase activity, Aqueous medium (HMG-CoA reductase; [3]): 10% | % of inhibition on HMG-CoA reductase activity, DMSO medium (HMG-CoA reductase; [3]): 15%

LSPWNEGDTYYGCQR (Buthus martensii Karsch) [Peptide 7]
% of inhibition on HMG-CoA reductase activity, Aqueous medium (HMG-CoA reductase; [3]): 2%

GCQRQTDEFCNKICKLHLASG (Buthus martensii Karsch) [Peptide 5]
% of inhibition on HMG-CoA reductase activity, Aqueous medium (HMG-CoA reductase; [3]): 2%

SPWNEGD (Buthus martensii Karsch) [Peptide 8]
% of inhibition on HMG-CoA reductase activity, Aqueous medium (HMG-CoA reductase; [3]): 1%

CC[C@H](C)C(=O)O[C@H]1CCC=C2C=C[C@H](C)[C@H](CC[C@@H]3C[C@@H](O)CC(=O)O3)[C@H]21 [Mevastatin, reference compound]
% of inhibition on HMG-CoA reductase activity, Aqueous medium (HMG-CoA reductase; 10 µM): 35% | % of inhibition on HMG-CoA reductase activity, DMSO medium (HMG-CoA reductase; 10 µM): 60%

B1: JCH2 native protein purified from Buthus martensii Karsch venom (protein)
chain: DSLSPWNEGDTYYGCQRQTDEFCNKICKLHLASGGSCQQPAPFVKLCTCQGIDYDNSFFFGALEKQCPKLRE
% of inhibition on HMG-CoA reductase activity, aqueous medium, JCH2 at 0.6 µM (10 µg) [1]: 30% | HMGCoA reductase inhibitory activity compared with statins (in words) (HMG-CoA reductase; HepG2 cell HMGCoA reductase, JCH2 0.6 μM vs statins 10 μM): lowering the HMGCoA reductase activity at much lower concentrations than the known inhibitors; also recorded: higher inhibitory activity | % of inhibition on HMG-CoA reductase activity, Aqueous medium (HMG-CoA reductase; HepG2 cells treated with native proteins at 10 μg each (JCH2 0.6 μM), vs untreated cells): 30% | HMGCoA reductase inhibitory activity (in words) (HMGCoA reductase): higher inhibitory activity | HMGCoA reductase mRNA (in words) (HepG2 cell; microarray): reducing the reductase mRNA | mevalonate, the precursor for cholesterol biosynthesis (in words) (HepG2 cell; microarray analysis): lowering the mevalonate | ApoC-II/III (8.8 kDa) [2]: ↑ ↑ | StAR related lipid transfer protein (23.0 kDa) [2]: ↑ ↑
